From patent US20100099203A1

How the values were obtained:
Protein A [1] = target: Protein A (UniProt P38507); experiment: Back scattering interferometry, free solution in PBS, 0.67 uM Protein A with IgG varied over 6 concentrations, 2 h at room temperature, PEG-5mer passivated chip
Protein A [2] = target: Protein A (UniProt P38507); experiment: Back scattering interferometry, free solution in PBS, 0.67 uM Protein A with IgG varied over 6 concentrations, 2 h at room temperature, PEG 200 passivated chip

With IgG (antibody) the Kd (Protein A [1]) was 8 nM.
In the case of IgG Fc segment, the Kd (Protein A [2]) is reported as 35 nM.
